Measured values published in publication PMC6310132 (The Biochemical journal, 2016).

Biological target: N-ethylmaleimide-sensitive factor (NSF), pRSET-A fusion protein (mouse, UniProt P46460 1-744)
Assay: SPR

Chain of N-ethylmaleimide-sensitive factor (NSF), pRSET-A fusion protein (P46460 whole entry, the tested form may be a part): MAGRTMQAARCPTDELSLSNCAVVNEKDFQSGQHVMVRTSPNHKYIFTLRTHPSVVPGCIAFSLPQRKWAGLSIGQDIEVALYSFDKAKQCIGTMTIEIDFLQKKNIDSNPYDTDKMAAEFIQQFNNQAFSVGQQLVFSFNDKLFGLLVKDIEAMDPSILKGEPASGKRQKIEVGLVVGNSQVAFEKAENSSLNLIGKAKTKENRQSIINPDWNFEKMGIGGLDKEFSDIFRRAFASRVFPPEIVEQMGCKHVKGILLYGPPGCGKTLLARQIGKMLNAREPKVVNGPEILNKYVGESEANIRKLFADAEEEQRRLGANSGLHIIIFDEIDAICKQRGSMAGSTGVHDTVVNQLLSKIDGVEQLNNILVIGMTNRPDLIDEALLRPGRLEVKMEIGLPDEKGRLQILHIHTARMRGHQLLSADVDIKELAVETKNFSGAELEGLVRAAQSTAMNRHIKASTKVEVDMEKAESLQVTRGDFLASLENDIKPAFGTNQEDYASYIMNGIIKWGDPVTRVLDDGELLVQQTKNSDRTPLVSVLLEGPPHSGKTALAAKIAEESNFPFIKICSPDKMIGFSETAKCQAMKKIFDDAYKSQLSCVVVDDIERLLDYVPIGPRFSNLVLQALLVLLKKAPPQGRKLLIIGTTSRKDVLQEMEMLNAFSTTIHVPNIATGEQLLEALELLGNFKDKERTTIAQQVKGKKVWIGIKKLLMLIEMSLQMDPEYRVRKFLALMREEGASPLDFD

B1: rat organ of Corti dopamine D1A carboxy terminus, pRSET-A fusion protein (domain or fragment, UniProt P18901 338-425, looked up)
chain: QKAFSTLLGCYRLCPTTNNAIETVSINNNGAVVFSSHHEPRGSISKDCNLVYLIPHAVGSSEDLKKEEAGGIAKPLEKLSPALSVILD
Kd: 12.1 nM
koff: 0.00274 s⁻¹
kon: 227000 M⁻¹ s⁻¹
